B1: PET30 (Kaistella jeonii) (protein)
chain: QCTGATVESLTNPGPYTVATLSEADGVRNGPKYAGSTIYYPTNATPPYASIAIVPGFTAAPSSVQEWGPFYASHGIVAIIIGTNSLYDQPEARALALLDALETIKQENGRATSPLIGKLDVTKLAVSGWSMGGGGAQRAAVLDNTISAVVALCPYLTSPQLNHTVPVLIFSGQSDPTAPPSQHANVHYNTTPGTTNKLLFEVKNGNHSVANSPTGGGGAVGKLALSWLKIYLEKNDCYCSVLATAIVNSTTVSSKISQSYQCNNALGVVDSKTRFNLYPNPTKDFVQVNVREMASYQLSSSTGQIVLKGIVTSSKNQIDLSKLPAGVYYLQINGETIKVIKKQ
notes: signal peptide removed, Met added; C-terminal 6xHis (pET21a), E. coli host, Ni-NTA; PorC (T9SS) domain kept

Key:
PET30ΔPorC = molecular target: T1, PET30ΔPorC (Kaistella jeonii, UniProt A0A0C1F4U8); assay: pNP release at […] nm, relative activity; format: biochemical; conditions: 30°C
T1 construct: gene OA86_11720; C-terminal PorC (T9SS) sorting domain 300-366 deleted; signal peptide removed; His-tagged, E. coli host; monomer in asymmetric unit

purified protein = substrate: CCCCCC(=O)Oc1ccc([N+](=O)[O-])cc1; assay: purified protein; format: biochemical, Kaistella jeonii; conditions: 30°C, pH 8

Molecule	pNP release at 405 nm, relative activity (PET30ΔPorC)	Km (purified protein) [µM]	kcat (purified protein) [s⁻¹]
CCCCCC(=O)Oc1ccc([N+](=O)[O-])cc1 [pNP-C6]	Activity tests confirmed that it was not affected in its activities using pNP-C6		
B1		300	8.9

— article PMC8767016, “The Bacteroidetes Aequorivita sp. and Kaistella jeonii Produce Promiscuous Esterases With PET-Hydrolyzing Activity” (Frontiers in Microbiology, 2022)
